T1: Cynomolgus TNFR2-His (Sino 90102-C08H) (cynomolgus monkey, UniProt A0A2K5VET2 132-366)
T1 construct: Bought protein; also called cynomolgus monkey TNFR2; recombinant cynomolgus monkey TNFR2 protein; not shown: His tag
T1 sequence: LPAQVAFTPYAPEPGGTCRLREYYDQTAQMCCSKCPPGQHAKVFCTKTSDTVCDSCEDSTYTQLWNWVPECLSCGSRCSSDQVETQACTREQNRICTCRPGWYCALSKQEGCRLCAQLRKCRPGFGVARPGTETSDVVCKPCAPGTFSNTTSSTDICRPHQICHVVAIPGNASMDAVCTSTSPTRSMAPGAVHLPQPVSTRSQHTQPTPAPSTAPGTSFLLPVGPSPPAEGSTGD

T2: Human TNFR2-His (Sino 10417-H08H) (human, UniProt P20333 23-257)
T2 construct: Bought protein; also called recombinant human TNFR2 protein; not shown: His tag
T2 sequence (looked up): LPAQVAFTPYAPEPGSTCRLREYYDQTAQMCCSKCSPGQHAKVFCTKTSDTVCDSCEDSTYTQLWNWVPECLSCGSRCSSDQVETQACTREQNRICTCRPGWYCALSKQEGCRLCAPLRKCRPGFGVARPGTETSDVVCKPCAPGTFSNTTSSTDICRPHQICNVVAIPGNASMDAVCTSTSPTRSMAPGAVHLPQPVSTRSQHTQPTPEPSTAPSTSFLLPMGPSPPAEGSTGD

T3: human TNFR2 on the surface of CHO-TNFR2 cells (human, UniProt P20333 23-461)
T3 construct: whole, on cells
T3 sequence (looked up): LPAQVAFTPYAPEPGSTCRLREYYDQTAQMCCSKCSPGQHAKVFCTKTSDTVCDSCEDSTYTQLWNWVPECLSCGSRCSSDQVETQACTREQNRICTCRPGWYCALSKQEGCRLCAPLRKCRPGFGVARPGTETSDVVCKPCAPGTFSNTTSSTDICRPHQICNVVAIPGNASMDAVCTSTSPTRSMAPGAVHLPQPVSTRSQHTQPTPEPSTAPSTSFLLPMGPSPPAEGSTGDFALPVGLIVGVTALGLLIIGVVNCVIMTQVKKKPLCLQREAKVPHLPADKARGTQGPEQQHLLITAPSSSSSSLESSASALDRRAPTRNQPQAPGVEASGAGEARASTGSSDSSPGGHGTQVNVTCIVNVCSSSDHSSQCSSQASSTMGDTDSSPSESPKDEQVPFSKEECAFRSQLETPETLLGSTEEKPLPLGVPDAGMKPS


Columns and labels:
[1] = target: T1, Cynomolgus TNFR2-His (Sino 90102-C08H); assay: ELISA, cynomolgus TNFR2-His coated
Procedure: (§1) The test humanized antibody against TNFR2 (as described in Example 1, the antibody was comprised of variable regions linked to IgG-Fc; the WT chimeric antibody also adopted the IgG-Fc structure) was subjected to 3.33-fold gradient dilution, loaded with 100 μl/well, and incubated with shaking at room temperature for 1.5 hours. The plate was washed, and then a working solution of murine anti-human IgG Fc-HRP (diluted at 1:10000) was added, loaded with 100 μl/well, and incubated with shaking at room temperature for 1.0 hour. The plate was washed again, and then the substrate TMB of HRP was added to develop colour. A stop solution was added to stop the reaction, and then a microplate reader (MD 13) was used to read the absorbance value. The binding curve of an antibody was drawn with antibody concentration as the abscissa and corresponding OD value as the ordinate, and fitted with four parameters (GraphPad Prism9) to calculate the EC50 value. The smaller the EC50 value, the stronger the binding ability of an antibody to human/cynomolgus monkey TNFR2. The binding effect of a humanized antibody was normalized to its corresponding human-murine chimeric antibody WT (see SEQ ID NOs: 38-43 for the sequence). The higher the percentage value, the better the binding effect of the humanized antibody. The results of binding of an anti-TNFR2 antibody to a human TNFR2 protein are shown in FIG. 1 and Table 4, and the results of binding of an anti-TNFR2 antibody to cynomolgus monkey TNFR2 are shown in FIG. 2 and Table 4.

[2] = target: T2, Human TNFR2-His (Sino 10417-H08H); assay: ELISA, human TNFR2-His coated
Procedure: as §1

[3] = target: T3, human TNFR2 on the surface of CHO-TNFR2 …; assay: flow cytometry on CHO-TNFR2 cells; area under the MFI fold curve
Procedure: (§2) The transfected full-length plasmid of human TNFR2 was purchased from Sino Biological (Cat #HG10417-UT, NCBI Ref Seq: NM_001066.2). The experiment was conducted at a cell density within 80%. The cell medium was discarded; the cells were rinsed with PBS, and digested with 1 ml trypsin for 2 minutes; the digestion was stopped with a Ham's F12 complete medium containing 10% FBS, and then a cell suspension was made. The cell suspension was counted, and then an appropriate amount of cell suspension was centrifuged at 350×g; the supernatant was discarded; a corresponding volume of blocking solution (10% FBS+PBS) at a density of 1×10⁷ cells/ml was added to resuspend the cells, and the mixture was incubated at 4° C. for 30 minutes. After the incubation, the mixture was centrifuged at 350×g to remove the supernatant, and the cells were resuspended in a staining buffer (2% FBS+PBS) to a density of 2×10⁶ cells/ml, and spread onto a 96-well plate, with 50 μl of cell suspension added to each well for later use. The antibody was diluted with PBS for 10-fold gradient dilution from the highest concentration of 20 μg/m (twice the concentration); the diluted antibody was added to the well containing 50 μl of cell suspension, and placed on a microplate shaker for shaking at 500 rpm for 1 minute, so that the antibody was fully mixed with the cells; the mixture was incubated at 4° C. for 1 h. After the incubation, the cells were washed twice with the staining buffer, with 100 μl per well, and centrifuged at 350-g for 5 minutes, and the supernatant was discarded. The PE goat anti-Human IgG Fc antibody (ebioscience, Cat #12-4998-82) was diluted 250-fold with the staining buffer, with a volume of 100 μl per well added to the washed cell wells; the mixture was mixed evenly, and stained at 4° C. for 30 minutes. After the staining, similarly, the cells were washed twice with the staining buffer; finally, the cells were resuspended in 200 μl of staining buffer; signals were detected by a flow cytometer (Thermo Attune NxT). The stronger the signal, the stronger the binding ability of an antibody to TNFR2. The binding curve of an antibody was drawn with antibody concentration as the abscissa and corresponding mean fluorescence intensity (MFI) fold as the ordinate, and fitted with four parameters (GraphPad Prism9) to calculate the EC50 value.

[4] = target: T3, human TNFR2 on the surface of CHO-TNFR2 …; assay: flow cytometry on CHO-TNFR2 cells
Procedure: as §2

EC50 [1] [ng/mL] | EC50 [2] [µg/mL] | AUC [3] | EC50 [4] [ng/mL] | Binder
9.62 | 0.0108 | 672 | 0.03 | 224-Hu2 (antibody, V domains shown, Humanized form of #224; also called VH9 + VL7) VH: QVQLVQSGSELKKPGASVKVSCKASGFNNKDIYMHWVRQAPGQGLEWMGRIDPATGNTKHDPKFQDKAVLSSDTSVSTAYLQISSLKAEDTAVYYCARSPYGDFGAMDYWGQGTLVTVSS VL: DIQMTQSPSSLSASVGDRVTITCTASSSVSSNYLHWYQQKPGSSPKLWIYSTSNLPSGVPSRFSGSGSGTDFTLTISSLQPEDFATYYCHQYHRSPWTFGQGTKVEIK
9.69 | 0.0122 | 675 | 0.03 | 224-Hu3 (antibody, V domains shown, Humanized form of #224; also called VH9 + VL8) VH: QVQLVQSGSELKKPGASVKVSCKASGFNNKDIYMHWVRQAPGQGLEWMGRIDPATGNTKHDPKFQDKAVLSSDTSVSTAYLQISSLKAEDTAVYYCARSPYGDFGAMDYWGQGTLVTVSS VL: DIQMTQSPSSLSASVGDRVTITCTASSSVSSNYLHWYQQKPGKAPKLLIYSTSNLPSGVPSRFSGSGSGTDFTLTISSLQAEDAATYYCHQYHRSPWTFGQGTKVEIK

The next lines start with the binder.

Binder | EC50 [1] [ng/mL] | EC50 [2] [µg/mL] | AUC [3] | EC50 [4] [ng/mL]
224-Hu4 (antibody, V domains shown, Humanized form of #224; also called VH9 + VL6) VH: QVQLVQSGSELKKPGASVKVSCKASGFNNKDIYMHWVRQAPGQGLEWMGRIDPATGNTKHDPKFQDKAVLSSDTSVSTAYLQISSLKAEDTAVYYCARSPYGDFGAMDYWGQGTLVTVSS VL: DIQMTQSPSSLSASVGDRVTITCTASSSVSSNYLHWYQQKPGKAPKLWIYSTSNLPSGVPSRFSGSGSGTDFTLTISSLQPEDFATYYCHQYHRSPWTFGQGTKVEIK | 9.56 | 0.0107 | 621 | 0.03
224-Hu5 (antibody, V domains shown, Humanized form of #224; also called VH9 + VL9) VH: QVQLVQSGSELKKPGASVKVSCKASGFNNKDIYMHWVRQAPGQGLEWMGRIDPATGNTKHDPKFQDKAVLSSDTSVSTAYLQISSLKAEDTAVYYCARSPYGDFGAMDYWGQGTLVTVSS VL: DIQMTQSPSSLSASVGDRVTITCTASSSVSSNYLHWYQQKPGKAPKLLIYSTSNLPSGVPSRFSGSGSGTDYSLTISSLQPEDFATYYCHQYHRSPWTFGQGTKVEIK | 9.69 | 0.0116 | 593 | 0.04

Source: US20240109974A1 (SHANDONG SIMCERE BIOPHARMACEUTICAL, published 2024)
